Test system: Escherichia coli TOP10
Assay: shrunken log2 fold change of peptide-encoding DNA abundance (4.5 h post-induction vs induction); higher = less antimicrobial activity (less host growth inhibition)
Conditions: time post-induction: 4.5 h; library: site-saturation at positions 5, 18, 19, 20
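Further: peptides expressed intracellularly from a pBAD plasmid library in pooled LB shake-flask culture, induced with 0.3% L-arabinose, DNA abundance read by NGS, three biological replicates, DESeq2 with apeglm shrinkage.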

Row | Sequence | shrunken log2 fold change
1 | RRIRFRPPRLPRPRPRPGDKPRP | 0.215
2 | RRIRGRPPRLPRPRPRPKVKPRP | 0.547
3 | RRIRFRPPRLPRPRPRPYEEPRP | -0.221
4 | RRIRDRPPRLPRPRPRPMYGPRP | -0.0676
5 | RRIRWRPPRLPRPRPRPAYCPRP | -0.0978
6 | RRIRDRPPRLPRPRPRPMHHPRP | -0.146
7 | RRIRCRPPRLPRPRPRPPSCPRP | -0.0847
8 | RRIRYRPPRLPRPRPRPRSFPRP | -0.0868
9 | RRIRHRPPRLPRPRPRPLFDPRP | -0.692
10 | RRIRFRPPRLPRPRPRPSKKPRP | 0.0524
11 | RRIRMRPPRLPRPRPRPGVPPRP | 0.671
12 | RRIRKRPPRLPRPRPRPAPQPRP | 0.937
13 | RRIRHRPPRLPRPRPRPEFMPRP | 0.0682
14 | RRIRPRPPRLPRPRPRPHQMPRP | 0.0123
15 | RRIRQRPPRLPRPRPRPEEAPRP | 0.188
16 | RRIRDRPPRLPRPRPRPGTNPRP | -0.344
17 | RRIRERPPRLPRPRPRPCWYPRP | -0.0102
18 | RRIRCRPPRLPRPRPRPPEHPRP | 0.0824
19 | RRIRIRPPRLPRPRPRPQQQPRP | -0.061
20 | RRIRQRPPRLPRPRPRPLVEPRP | -0.0628
21 | RRIRWRPPRLPRPRPRPVEPPRP | 0.546
22 | RRIRHRPPRLPRPRPRPPQNPRP | 0.613
23 | RRIRWRPPRLPRPRPRPPRSPRP | 0.733
24 | RRIRNRPPRLPRPRPRPCQDPRP | -0.0893
25 | RRIRTRPPRLPRPRPRPVRMPRP | 0.148

Row | Sequence | shrunken log2 fold change
26 | RRIRQRPPRLPRPRPRPQWPPRP | 0.239
27 | RRIRCRPPRLPRPRPRPCSAPRP | -0.277
28 | RRIRIRPPRLPRPRPRPNVSPRP | -0.052
29 | RRIRMRPPRLPRPRPRPQKDPRP | 0.0308
30 | RRIRMRPPRLPRPRPRPSYYPRP | -0.531
31 | RRIRFRPPRLPRPRPRPYFMPRP | -1.02
32 | RRIRSRPPRLPRPRPRPLMMPRP | -0.0355
33 | RRIRDRPPRLPRPRPRPDTEPRP | 0.0738
34 | RRIRMRPPRLPRPRPRPHVQPRP | -0.0996
35 | RRIRVRPPRLPRPRPRPAKIPRP | 0.117
36 | RRIRIRPPRLPRPRPRPQPQPRP | 0.0386
37 | RRIRLRPPRLPRPRPRPMMGPRP | -0.0316
38 | RRIRRRPPRLPRPRPRPGECPRP | 0.0146
39 | RRIRYRPPRLPRPRPRPLWLPRP | 0.0113
40 | RRIRCRPPRLPRPRPRPISHPRP | -0.486
41 | RRIRWRPPRLPRPRPRPVDTPRP | 0.00157
42 | RRIRKRPPRLPRPRPRPPHFPRP | 0.519
43 | RRIRERPPRLPRPRPRPTCHPRP | -0.186
44 | RRIRLRPPRLPRPRPRPRSLPRP | 0.0255
45 | RRIRVRPPRLPRPRPRPENLPRP | -0.111
46 | RRIRLRPPRLPRPRPRPRLMPRP | -0.197
47 | RRIRMRPPRLPRPRPRPWDKPRP | -0.0134
48 | RRIRPRPPRLPRPRPRPQFSPRP | -0.184
49 | RRIRDRPPRLPRPRPRPAILPRP | 0.099
50 | RRIRCRPPRLPRPRPRPLSMPRP | -0.207

Row | Sequence | shrunken log2 fold change
51 | RRIRCRPPRLPRPRPRPVQWPRP | 0.116
52 | RRIRWRPPRLPRPRPRPQVEPRP | -0.00667
53 | RRIRHRPPRLPRPRPRPFGFPRP | -0.0586
54 | RRIRCRPPRLPRPRPRPDIHPRP | -0.468
55 | RRIRYRPPRLPRPRPRPVMTPRP | -0.09
56 | RRIRARPPRLPRPRPRPMDMPRP | -0.128
57 | RRIRLRPPRLPRPRPRPHFLPRP | -0.499
58 | RRIRDRPPRLPRPRPRPQIPPRP | -0.085
59 | RRIRTRPPRLPRPRPRPCTGPRP | -0.0103
60 | RRIRMRPPRLPRPRPRPGCKPRP | 0.172
61 | RRIRQRPPRLPRPRPRPCASPRP | -0.0156
62 | RRIRDRPPRLPRPRPRPKLTPRP | -0.0121
63 | RRIRKRPPRLPRPRPRPIGHPRP | 0.0336
64 | RRIRLRPPRLPRPRPRPDATPRP | 0.398
65 | RRIRDRPPRLPRPRPRPDSKPRP | 0.0365
66 | RRIRCRPPRLPRPRPRPDSGPRP | 0.0093
67 | RRIRTRPPRLPRPRPRPVPKPRP | 0.0251
68 | RRIRTRPPRLPRPRPRPVAYPRP | -0.502
69 | RRIRPRPPRLPRPRPRPKMAPRP | -0.0597
70 | RRIRKRPPRLPRPRPRPCDQPRP | -0.0132
71 | RRIRHRPPRLPRPRPRPFYCPRP | -0.946
72 | RRIRMRPPRLPRPRPRPAWTPRP | 0.08
73 | RRIRVRPPRLPRPRPRPSIIPRP | -0.384
74 | RRIRGRPPRLPRPRPRPNYSPRP | -0.371
75 | RRIRVRPPRLPRPRPRPMQSPRP | 0.292

Row | Sequence | shrunken log2 fold change
76 | RRIRARPPRLPRPRPRPEMAPRP | 0.739
77 | RRIRERPPRLPRPRPRPPCVPRP | -0.159
78 | RRIRNRPPRLPRPRPRPPSLPRP | -0.0145
79 | RRIRHRPPRLPRPRPRPEHAPRP | -0.0423
80 | RRIRLRPPRLPRPRPRPEPAPRP | 0.0966
81 | RRIRCRPPRLPRPRPRPFEEPRP | -0.0957
82 | RRIRDRPPRLPRPRPRPKSHPRP | -0.204
83 | RRIRWRPPRLPRPRPRPDIDPRP | 0.546
84 | RRIRYRPPRLPRPRPRPTWHPRP | -0.349
85 | RRIRERPPRLPRPRPRPENNPRP | -0.27
86 | RRIRARPPRLPRPRPRPTMDPRP | -0.037
87 | RRIRTRPPRLPRPRPRPSFLPRP | -0.586
88 | RRIRSRPPRLPRPRPRPESAPRP | 0.278
89 | RRIRQRPPRLPRPRPRPQMFPRP | 0.00489
90 | RRIRYRPPRLPRPRPRPIYNPRP | 0.36
91 | RRIRWRPPRLPRPRPRPAHKPRP | 0.344
92 | RRIRMRPPRLPRPRPRPKKQPRP | 0.0673
93 | RRIRVRPPRLPRPRPRPYTPPRP | -0.645
94 | RRIRARPPRLPRPRPRPQHWPRP | 0.0917
95 | RRIRNRPPRLPRPRPRPGFHPRP | -0.0379
96 | RRIRLRPPRLPRPRPRPMMCPRP | 0.00205
97 | RRIRMRPPRLPRPRPRPTNVPRP | -0.0668
98 | RRIRMRPPRLPRPRPRPVAVPRP | 0.55
99 | RRIRMRPPRLPRPRPRPPGRPRP | 0.849
100 | RRIRIRPPRLPRPRPRPFTHPRP | -0.182

Row | Sequence | shrunken log2 fold change
101 | RRIRLRPPRLPRPRPRPYWLPRP | -0.54
102 | RRIRCRPPRLPRPRPRPMTKPRP | 0.0306
103 | RRIRERPPRLPRPRPRPMKVPRP | -0.0915
104 | RRIRVRPPRLPRPRPRPQDEPRP | -0.114
105 | RRIRFRPPRLPRPRPRPEKYPRP | -0.397
106 | RRIRDRPPRLPRPRPRPDNYPRP | -0.117
107 | RRIRIRPPRLPRPRPRPARSPRP | 0.0389
108 | RRIRMRPPRLPRPRPRPWMWPRP | -0.0668
109 | RRIRLRPPRLPRPRPRPWKCPRP | -0.391
110 | RRIRERPPRLPRPRPRPEDRPRP | -0.0523
111 | RRIRPRPPRLPRPRPRPFHSPRP | -0.153
112 | RRIRQRPPRLPRPRPRPPLVPRP | 0.931
113 | RRIRKRPPRLPRPRPRPMLSPRP | -0.227
114 | RRIRMRPPRLPRPRPRPAGEPRP | 1.87
115 | RRIRIRPPRLPRPRPRPVKFPRP | -0.0946
116 | RRIRGRPPRLPRPRPRPMDSPRP | 0.318
117 | RRIRLRPPRLPRPRPRPRPRPRP | 0.823
118 | RRIRDRPPRLPRPRPRPKEYPRP | -0.0963
119 | RRIRVRPPRLPRPRPRPCCTPRP | -0.247
120 | RRIRKRPPRLPRPRPRPFHEPRP | -0.154
121 | RRIRTRPPRLPRPRPRPSKQPRP | -0.11
122 | RRIRCRPPRLPRPRPRPSTLPRP | -0.686
123 | RRIRWRPPRLPRPRPRPNSLPRP | -0.123
124 | RRIRSRPPRLPRPRPRPYGEPRP | -0.256
125 | RRIRHRPPRLPRPRPRPSRVPRP | -0.0634

— the supplement of paper PMC9112550, “Optimization of the antimicrobial peptide Bac7 by deep mutational scanning” (BMC Biology, 2022)
